The text below walks through data of the nanobody polyreactivity screen of Harvey et al. (2022).

The data set can be described thus: yeast display, Sf9 membrane polyspecificity reagent, FACS + sequencing; frameworks hold sequencing errors. In outline:
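In a synthetic yeast display library (Saccharomyces cerevisiae BJ5465), nanobody expression was induced with galactose for 36–48 hours. FACS gates were set low and high (top ~1%) using anti-HA fluorescence for expression and streptavidin fluorescence for binding of the Sf9 membrane reagent. Each polyreactivity label is drawn from the gate of origin.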
Consider “QVQLVESVGGLVQAGGSLRLSCAASGRTFTTNAMGWYRQAPGKERELVAAITIGDDTYYADSVKGRFTISRDNAKNTVYLQMNSLKPEDTAVYYCAADYKRVPFVTQYVSKDGYWGQGTQVTVSS”, for which the “polyreactivity (PSR sort gate)” value is “low polyreactivity”.

“QVQLVESGGGLVQAGGRLRLSCPASGSIFGGYAMGWYRQAPGKERELVAGITRSGGSTYYADSVKGRFTISRYNAKNTVYFQMNSLKPEDTAVYYCAVEIQFYRSPRKVRSYDYWGQGTQVTVSS”: the “polyreactivity (PSR sort gate)” value is on record as “low polyreactivity”.

Turning to “QVQLVESGGGLVQAGGSLRLSCAASGIIFEGYAMGWYRQATGKERELVAAITGTADGTYYADSVKGRFTISRDNAKNTVYLQMNSLKPEDTAVYYCAKGSVVYLLRGVKGHSMDYWGQGTQVTVSS”, the “polyreactivity (PSR sort gate)” value is on record as “low polyreactivity”.

With “QVQLVESGGGLVQAGGSLRLSCAASGSIFDWNAMGWYRQAPGKERELVAAISGTGGTKYADSVKGRFTISRDNAKNTVYLQMNSLKPEDTAVYYCAVGLVPLRDGWHFYYEFDSWGQGTQVTVSS”, the “polyreactivity (PSR sort gate)” value was “low polyreactivity”.

For “QVQLVESGGGLVQAGGILRLSCASSGRIFGVNAMGWYRQATGKERELVATISSGGSTYYADSVKGRFTISRDNAKNTVYLQLNSLKPEDTAVYYCAADTRRYYLARYRTDYWGQGTQVTVSS”, the “polyreactivity (PSR sort gate)” value is reported as “high polyreactivity”.

For the sequence “QVQLVESGGGLVQAGGSLRLSCAASGRTFIPYAMGWYRQAPGKERQLVATIRRGGSTYYADSVKGRFTISRDNAKNTVYLQMNSLKPEDTAEYYCAATRYSFGPRRVDYWGQGTQVTVSS”, the “polyreactivity (PSR sort gate)” value was “high polyreactivity”.

For the sequence “QVQLVESGGGLVQAGGSLRLSCAASGNTFVGYTMGWYRHAPGKERELVAAISWNGGTTYYADSVKGRFTISRDNAKNTVYLQMNSLKPEDTAVYYCNTRWYTRRFDYWGQGTQVTVSS”, the “polyreactivity (PSR sort gate)” value was “high polyreactivity”.

On to “QVQLVESGGGLVQAGGSLRLSCAASGRIFSYNAMGWYRQAPGKERELVAGITSGGRTYYADSVKGRFTISRDNAKNTVYLQMNSLKPEDTAVHYCAASYVPARTRYYYWGQGTQVTVSS”, for which the “polyreactivity (PSR sort gate)” value is reported as “high polyreactivity”.

On to “QDQLVESGGGLVQAGGSLRLSCDASGSIFEQNAMGWYRPAPGKERELVAAISSGSTNYADSVKGRFTISRDNAKNTVYLQMNSLKPEDTAVYYCAKRWRRRFVDVWSLYDYWGQGTQVTVSS”, for which the “polyreactivity (PSR sort gate)” value was “low polyreactivity”.

For “QDQLVESGGGIVQAGGSLRLSCAASGSTIPSYAMGWYRQAPGKERELVASITYSDGTTRYADSVKGRFTISRDNAKNTVCLQMNRLKPVDTAVYYCNAVYDREGMDYWGQGTQVTVSS”, the “polyreactivity (PSR sort gate)” value is “low polyreactivity”.

Consider “QVHLVESGGGLVQAGGRLRLSCAASGSIFRLYAMGWYRQAPGKERELVARITTGGSTNYADSVKGRFTISLDNAKNTVYFQMNSLKPEDTAVYYCNGGVLVTAQMGWQKYSYWGQGSQVTVSS”, for which the “polyreactivity (PSR sort gate)” value is “high polyreactivity”.

With “QVQLVESGGGLVQAGGSLRLSCAASGRIFVPYAMGWYRQAPGKERELVAGITSGSRTNYADSVKGRFTISRDNAKYTVYLQMNSLKPEDTEVYYCNALDFRYYGIFDYWGQGTQVTVSS”, the “polyreactivity (PSR sort gate)” value was “high polyreactivity”.

For the sequence “QVHLVESGGGLVQAGGSLRLSCAASGRTFRYNAMGWYRQAPGKERELVATISSSGGSTSYADSVKGRFTISRDNAKNTVYLQMNSLKPEDTAVYYCNKRRLVAPGNGMDSWGQGTQVTVSS”, the “polyreactivity (PSR sort gate)” value is “low polyreactivity”.

Take “QVNLVESGGGLVQAGGSLRLSCAASGIIFRSYAMGWYRPAPGKARELVADITSTGTSTYYADSVKGRFTISRDNAKNTVYLQMNSLKPEDNAVYYCNADRFGFYPQRDYWGQGTQVTVSW”: the “polyreactivity (PSR sort gate)” value is on record as “high polyreactivity”.

On to “QVQLVESGGGLVQAGGSLRLSCAASGSTFYVYAMGWYRQAPGKERELVAAITVRGGSTYYADSVKGRFTISRDNAKYTVYLQMNSLKPEDTAVYYCAVDVSKPYYEMDYWGQGTQVTVSS”, for which the “polyreactivity (PSR sort gate)” value is recorded as “high polyreactivity”.

In the case of “QVQLVESGGGLVQAGGSLRLSCAASGRTYTGYGMGWSRQAPGKERELVAAITWRGDRTYYADSVKGRFTISRDNAKNTVYLQMNSLKPEDTAVYYCNKLGRIQYDYWGQGTQVTVSS”, the “polyreactivity (PSR sort gate)” value is recorded as “high polyreactivity”.
